Consider two substances from patent US20110039729A1.

Test [1] concerns the target soybean agglutinin (SBA), GalNAc-specific lectin (soybean) (UniProt P05046). Kind of test: single SBA panning step, 8×10^10 aglycosylated phage applied.
Test [2] shares this target.
Test [3] shares this target. Kind of test: single SBA panning step, glycophage with 10^4-fold excess of aglycosylated phage.
The target is the same in test [4]. Kind of test: single SBA panning step, 8×10^6 cfu glycophage mixed with an equal amount of aglycosylated phage.
For test [5] the target is unchanged. Kind of test: single SBA panning step, 8×10^6 cfu glycophage alone.
Test [6] shares this target. Kind of test: single SBA panning step, glycophage with 10^2-fold excess of aglycosylated phage.

UniProt P05046, sequence (P05046 33-285 limits assumed): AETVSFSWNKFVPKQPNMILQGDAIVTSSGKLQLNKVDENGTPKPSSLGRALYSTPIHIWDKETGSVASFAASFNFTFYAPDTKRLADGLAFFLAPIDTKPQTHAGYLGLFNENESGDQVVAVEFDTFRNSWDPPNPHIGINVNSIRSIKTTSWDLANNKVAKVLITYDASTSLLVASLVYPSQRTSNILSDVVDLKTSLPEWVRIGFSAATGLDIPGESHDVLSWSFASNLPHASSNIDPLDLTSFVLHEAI

“non-glycosylated AcrA-g3p fusion protein from TG1 pglmut cells (in lysates and displayed on phage) (from UniProt P69168 19-424)” displayed an infectious particles bound to SBA in test [1] of 38000 cfu. The phage titer in the eluate in test [2] stood at 1000 cfu/ml.

In test [3], “glycosylated AcrA-g3p fusion protein from TG1 pgl+ cells (in lysates and displayed on phage) (from UniProt P69168 19-424)” showed a percent of phage bound by SBA of 79% and a phage bound by SBA of 6.3e+06 cfu. Also, in test [4], the percent of phage bound by SBA stood at 96% and the phage bound by SBA worked out at 7.8e+06 cfu. Further, in test [2], the fold increase in phage titer in the eluate is 1000 fold and the phage titer in the eluate was found to be 1e+06 cfu/ml. In test [5], this substance displayed a percent of phages recovered of 96% and a phages recovered of 7.7e+06 cfu. Further, in test [6], the percent of phage bound by SBA is 93% and the phage bound by SBA turned out to be 7.4e+06 cfu.
